We go through one molecule from patent US20070041944A1, “Treating tumors by ENH dislocation of ID proteins” (THE TRUSTEES OF COLUMBIA UNIVERSITY IN THE CITY OF NEW YORK, priority 2005, published 2007).

One test addresses T1, Id2 (Homo sapiens, UniProt Q02363).
T1 construct: expressed in transfected cells; host or cells: Cos-1
T1 sequence (Q02363 1-134): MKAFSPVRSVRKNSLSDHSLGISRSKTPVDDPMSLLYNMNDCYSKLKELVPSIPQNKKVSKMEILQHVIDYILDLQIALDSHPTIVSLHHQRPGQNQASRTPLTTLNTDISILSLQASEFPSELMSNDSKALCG
The experiment in a line: Coimmunoprecipitation of Id2 and Flag-tagged ENH in transfected Cos-1 cells. It is filed as binding. The conditions noted are these: Cos-1 cells transfected with Id2 and Flag-tagged ENH. The method, then:
(§1) GST Pull-Down Assay, Western Blot, and Coimmunoprecipitation: GST fusion proteins were purified from BL21 Star (Invitrogen). GST pull-down assay was performed as described in lavarone, A. et al., (1994), Genes Dev., 8:1270-1284. For Wetern blot analysis, cellular pellets were lysed in ice-cold RIPA buffer (50 mM Tris, pH 7.5/150 mM NaCl/1% Nonidet P-40/0.5% sodium deoxycholate/0.1% SDS) containing Complete Mini protease inhibitor pellet (Roche) and 1 mM PMSF. Lysates were electrophoresed on SDS/PAGE gels and transferred to nitrocellulose membrane (Amersham Pharmacia Biotech). Membranes were stained with antibodies against ENH, Id2 (Santa Cruz Biotechnology), and α-tubulin (Sigma), and blots were developed by using ECLWestem Blotting Detection System (Amersham Pharmacia Biotech). The anti-ENH antibody is a rabbit polyclonal that was produced in collaboration with Zymed against a peptide that is fully conserved in the mouse sequence (KQQNGPPRKHI (SEQ ID NO:1)). Coimmunoprecipitation of Id2 and ENH from cells transfected with pcDNA.3-Id2 and p3XFlag-ENH was performed as described (lavarone, A. et al., (2004), Nature, 432:1040-1045).
To determine whether Id2 binds ENH in vivo, coimmunoprecipitation experiments were performed after transfecting Id2 and Flag-tagged ENH in Cos-1. Anti-Id2 antibodies precipitated full-length Flag-ENH but not Flag-ENHδLIM (FIG. 2C). […]

In the next test the target is T2, GST-Id2 (Homo sapiens, UniProt Q02363).
T2 construct: made in house; host or cells: E. coli BL21 Star (Invitrogen)
T2 sequence (Q02363 1-134): T1 sequence (Q02363 1-134)
The experiment in a line: GST pull-down assay with GST-Id2. It counts as binding. As to conditions: in vitro-translated 35S-labeled proteins, autoradiography (FIG. 2B). The method, then:
as §1
(§2) To validate the specificity of the binding between ENH and Id2 and identify the domains that mediate this interaction, GST fusion proteins and in vitro-translated proteins in pull-down assays.

A further test concerns SK-N-SH cells. Put plainly: BrdU incorporation study. As to conditions: BrdU 6 h and 14 h. It is filed as cell-based, human. The method, then:
BrdU Incorporation Study: SK-N-SH cells were plated in Lab-Tek Chamber Slides (Nalge Nunc Intl.). Cells were transfected with plasmids expressing the empty vector, Id2, ENH, or both and an EGFP expression vector to identify transfected cells. After 24 h, cells were labeled with 10 μM BrdU for 6 h and 14 h, fixed, and stained with anti-BrdU antibody (Roche) for 1 h at room temperature. Secondary antibody was donkey anti-mouse, Cy3-conjugated (Jackson hnmunoResearch). Nuclei were counterstained with DAPI. Cells were examined on an Olympus epifluorescence microscope. BrdU-positive cells were scored by counting at least 500 GFP-positive cells in three independent experiments.
A well known function of Id2 is the ability to enhance cell proliferation by promoting the transition from G1 to S phase of the cell cycle. Therefore, it was asked whether ENH inhibited cell proliferation and opposed Id2-mediated entry into S phase. […] Next SK-N-SH was transfected with ENH and Id2 in the presence of a GFP expression plasmid and measured the rate of DNA synthesis by incorporation of BrdU of the successfully transfected, GFP-positive cells.

The test system of a further test is GST-δHLHId2. The experiment in a line: GST pull-down assay with GST-Id2 lacking the HLH domain. It is filed as binding. As to conditions: in vitro-translated 35S-labeled ENH (FIG. 2B Right). The method, then:
as §1, §2

B1: ENH: actin cytoskeleton-associated PDZ-LIM protein ENH (Enigma Homologue), full-length, SEQ ID NO:4; also used Flag-tagged (protein, listed as Homo sapiens)
chain: MSNYSVSLVGPAPWGFRLQGGKDFNMPLTISSLKDGGKAAQANVRIGDVVLSIDGINAQGMTHLEAQNKIKGCTGSLNMTLQRASAAPKPEPVPVQKGEPKEVVKPVPITSPAVSKVTSTNNMAYNKAPRPFGSVSSPKVTSIPSPSSAFTPAHATTSSHASPSPVAAVTPPLFAASGLHANANLSADQSPSALSAGKTAVNVPRQPTVTSVCSETSQELAEGQRRGSQGDSKQQNGPPRKHIVERYTEFYHVPTHSDASKKRLIEDTEDWRPRTGTTQSRSFRILAQITGTEHLKESEADNTKKANNSQEPSPQLASSVASTRSMPESLDSPTSGRPGVTSLTTAAAFKPVGSTGVIKSPSWQRPNQGVPSTGRISNSATYSGSVAPANSALGQTQPSDQDTLVQRAEHIPAGKRTPMCAHCNQVIRGPFLVALGKSWHPEEFNCAHCKNTMAYIGFVEEKGALYCELCYEKFFAPECGRCQRKILGEVINALKQTWHVSCFVCVACGKPIRNNVFHLEDGEPYCETDYYALFGTICHGCEFPIEAGDMFLEALGYTWHDTCFVCSVCCESLEGQTFFSKKDKPLCKKHAHSVNF
On to B1, for which the “precipitation by anti-Id2 antibodies” value in the test with Id2 (Western blot for Flag (FIG. 2C)) is on record as “precipitated”. Also, the “Id2 in Flag immunoprecipitates” value with Id2 (Western blot for Id2 (FIG. 2D)) was “contained Id2”. Further, the “binding of GST-Id2 to ENH constructs” value in the test with GST-Id2 is given as “bound efficiently”. For the same molecule, in the test on SK-N-SH cells (ENH and Id2 cotransfected), the “Id2-mediated stimulation of DNA synthesis” value was “abrogated”. In the test on SK-N-SH cells (ectopic ENH), the “S phase entry (BrdU incorporation of GFP-positive cells)” value was “strongly inhibited”. In the test on GST-δHLHId2, the “binding of GST-δHLHId2 to ENH” value was “failed to bind”.
